These results are taken from article PMC5830446, “Spatial specificity of auxin responses coordinates wood formation”.

The data set addresses T1, ARF5 DNA-binding domain (ARF5-DBD) (UniProt P93024 120-274).
T1 sequence: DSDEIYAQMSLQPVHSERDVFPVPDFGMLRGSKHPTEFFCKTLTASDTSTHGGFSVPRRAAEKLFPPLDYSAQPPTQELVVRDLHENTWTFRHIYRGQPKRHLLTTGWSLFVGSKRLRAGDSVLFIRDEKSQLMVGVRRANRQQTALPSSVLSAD
Kind of data set: EMSA; EMSA: 12.5 pmol ARF5-DBD (doubled in competition), 200 fmol Cy5 probe, 10 mM Tris-HCl pH 7.4, 75 mM NaCl, 50 ng/ul poly(dI-dC), 1 mM DTT, 20 min room temperature; 6% native gel, 0.5x TBE. The conditions noted are these: protein: recombinant; tags: 6xHis-MBP removed by TEV protease; label: 5' Cy5 (both strands); blunt. For orientation: A gel shift assay detects complexes by their altered migration in electrophoresis.

B1: WOX4a (dsDNA)
DNA 1: GCTCCATGCAGACATGAACATA
DNA 2: TATGTTCATGTCTGCATGGAGC
In the case of B1, the binding result was “binds”.

B2: WOX4b (dsDNA)
DNA 1: AATCTGTCATTACCGACATAGT
DNA 2: ACTATGTCGGTAATGACAGATT
Consider B2, for which the binding result was “no binding”.
